Laboratory results taken from US20230192835A1 (PROMETHEUS BIOSCIENCES, published 2023).
Where a chain is given by its changes, count along the chain named.

T1: membrane-associated human TL1A on transfected HEK293 cells (human, UniProt O95150 1-251)
T1 construct: whole, on cells
T1 sequence (looked up): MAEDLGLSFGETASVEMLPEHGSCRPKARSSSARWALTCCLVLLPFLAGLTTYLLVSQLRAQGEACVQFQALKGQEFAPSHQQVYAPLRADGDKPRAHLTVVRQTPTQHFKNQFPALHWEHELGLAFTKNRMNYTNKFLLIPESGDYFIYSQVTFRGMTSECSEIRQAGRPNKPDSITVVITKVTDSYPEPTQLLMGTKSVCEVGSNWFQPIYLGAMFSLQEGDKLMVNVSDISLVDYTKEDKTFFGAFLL

B1: Clone 2 Fab (Fab, V domains shown)
VH: QVQLVQSGAEVKKPGASVKVSCKASGFDIQDTYMHWVRQAPGQGLEWMGRIEPASGHIKYSPKFQGRVTMTRDTSTSTVYMELSSLRSEDTAVYYCARSGGLPDWWGQGTTVTVSS
VL: EIVLTQSPGTLSLSPGERATLSCRASSSVSYMYWYQQKPGQAPRLLIYATSNLASGIPDRFSGSGSGTDFTLTISRLEPEDFAVYYCQQWEGNPRTFGGGTKLEIK
notes: Fab
B2: Clone 46 Fab (Fab, V domains shown)
VH: B1 VH with I58V, G66V
VL: B1 VL
notes: Fab
B3: Clone 47 Fab (Fab, V domains shown)
VH: B1 VH with I58V, S61D, G66T
VL: B1 VL
notes: Fab
B4: Clone 52 Fab (Fab, V domains shown)
VH: B1 VH
VL: B1 VL with R24G
notes: Fab
B5: Clone 17L Fab (Fab, V domains shown)
VH: B1 VH with E52D, I58L, S61D, G66V, W105M
VL: B1 VL with E91Q
notes: Fab
B6: Clone 17L IgG1 (modified) (antibody)
heavy: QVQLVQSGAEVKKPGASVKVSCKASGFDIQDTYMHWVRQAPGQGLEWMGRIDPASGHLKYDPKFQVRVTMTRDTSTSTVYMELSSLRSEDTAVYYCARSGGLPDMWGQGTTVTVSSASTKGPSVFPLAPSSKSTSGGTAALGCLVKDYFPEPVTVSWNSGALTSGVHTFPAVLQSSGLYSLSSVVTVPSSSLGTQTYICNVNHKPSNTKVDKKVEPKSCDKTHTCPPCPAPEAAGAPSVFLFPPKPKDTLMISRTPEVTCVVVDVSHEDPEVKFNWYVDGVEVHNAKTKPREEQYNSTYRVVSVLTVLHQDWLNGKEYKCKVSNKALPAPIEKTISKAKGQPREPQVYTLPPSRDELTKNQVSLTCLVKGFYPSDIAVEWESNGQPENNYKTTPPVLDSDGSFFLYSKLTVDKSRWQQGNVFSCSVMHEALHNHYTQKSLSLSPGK
light: EIVLTQSPGTLSLSPGERATLSCRASSSVSYMYWYQQKPGQAPRLLIYATSNLASGIPDRFSGSGSGTDFTLTISRLEPEDFAVYYCQQWQGNPRTFGGGTKLEIKRTVAAPSVFIFPPSDEQLKSGTASVVCLLNNFYPREAKVQWKVDNALQSGNSQESVTEQDSKDSTYSLSSTLTLSKADYEKHKVYACEVTHQGLSSPVTKSFNRGEC
notes: also called 17L G1
B7: Clone 47 IgG2 (antibody)
heavy: QVQLVQSGAEVKKPGASVKVSCKASGFDIQDTYMHWVRQAPGQGLEWMGRIEPASGHVKYDPKFQTRVTMTRDTSTSTVYMELSSLRSEDTAVYYCARSGGLPDWWGQGTTVTVSSASTKGPSVFPLAPCSRSTSESTAALGCLVKDYFPEPVTVSWNSGALTSGVHTFPAVLQSSGLYSLSSVVTVPSSNFGTQTYTCNVDHKPSNTKVDKTVERKCCVECPPCPAPPVAGPSVFLFPPKPKDTLMISRTPEVTCVVVDVSHEDPEVQFNWYVDGVEVHNAKTKPREEQFNSTFRVVSVLTVVHQDWLNGKEYKCKVSNKGLPAPIEKTISKTKGQPREPQVYTLPPSREEMTKNQVSLTCLVKGFYPSDIAVEWESNGQPENNYKTTPPMLDSDGSFFLYSKLTVDKSRWQQGNVFSCSVMHEALHNHYTQKSLSLSPGK
light: B6 light with Q91E
notes: also called 47 G2
B8: Clone 47 IgG1 (modified) (antibody)
heavy: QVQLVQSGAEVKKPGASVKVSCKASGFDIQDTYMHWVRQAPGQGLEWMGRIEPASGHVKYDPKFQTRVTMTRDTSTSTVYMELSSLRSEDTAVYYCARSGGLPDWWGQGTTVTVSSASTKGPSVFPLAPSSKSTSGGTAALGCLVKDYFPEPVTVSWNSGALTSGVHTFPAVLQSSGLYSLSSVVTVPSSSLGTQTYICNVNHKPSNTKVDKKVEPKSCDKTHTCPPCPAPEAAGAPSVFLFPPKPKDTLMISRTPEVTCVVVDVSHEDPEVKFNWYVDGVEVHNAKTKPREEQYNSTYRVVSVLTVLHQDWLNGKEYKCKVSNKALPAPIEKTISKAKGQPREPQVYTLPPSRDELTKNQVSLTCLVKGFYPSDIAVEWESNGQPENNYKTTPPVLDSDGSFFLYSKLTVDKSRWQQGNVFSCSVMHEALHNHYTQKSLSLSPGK
light: B6 light with Q91E
notes: also called 47 G1; variant 47
B9: Clone 17L IgG2 (antibody)
heavy: B7 heavy with E52D, V58L, T66V, W105M
light: B6 light
notes: also called 17L G2

molecular target: T1, membrane-associated human TL1A on …; assay: flow cytometry, HEK293 cells expressing human TL1A, Fab
Protocol: All the Fab variants were tested for binding to membrane-associated human TL1A. For these studies a HEK293 cell line that had been transfected with human TL1A was used. The 293 cells expressing membrane bound human TL1A were maintained in DMEM containing L-glutamine, glucose, sodium pyruvate, and phenol red (ThermoFisher cat #11995-065) plus 10% fetal bovine serum, 1× penicillin-streptomycin (Fisher cat #15140122) and 2 μg/ml puromycin (Gibco cat #A11138-03) in a 37° C. incubator with 5% CO₂. Three days prior to the assay, a T-75 flask was seeded with 3×10⁶ cells so that the flask was 90-95% confluent on the day of the assay. The media was aspirated and the cell monolayer was gently washed with 5 ml PBS. Adherent cells were removed by repeatedly pipetting 10 ml ice cold 1% BSA/PBS against the monolayer. The cells were counted and 5×10⁵ were aliquoted for each sample to be analyzed. The cells were collected by centrifuging at 300×g at 4° C. for 5 minutes and the wash was discarded. The cells were resuspended in 100 μl Fab or IgG diluted in 1% BSA/PBS and placed on ice for 30 min. Next, the cells were washed with 1 ml 1% BSA/PBS and collected by centrifuging at 300×g at 4° C. for 5 min. The wash was discarded and 100 μl secondary goat F(ab′)2 anti-human kappa FITC (Southern Biotech cat #2062-02) or goat F(ab′)2 anti-human IgG PE (Southern Biotech cat #2043-09) conjugate, diluted 1:200 in BSA/PBS was added. Cells were placed on ice for 30 min. Finally, the cells were washed with 1 ml BSA/PBS, collected by centrifuging at 300×g at 4° C. for 5 min. The wash was removed and the cells were resuspended in 500 μl 1% BSA/PBS. One drop of Sytox AADvanced ReadyFlow Reagent (ThermoFisher cat #R37173) was added per sample and the samples were analyzed on the Attune NxT Flow Cytometer (ThermoFisher).

| binding result | Binder |
| --- | --- |
| binds | B1 |
| binds | B2 |
| binds | B3 |
| binds | B4 |
| binds | B5 |

molecular target: T1, membrane-associated human TL1A on …; assay: flow cytometry, HEK293 cells expressing human TL1A, IgG

| binding result | Binder |
| --- | --- |
| binds | B6 |
| binds | B7 |
| binds | B8 |
| binds | B9 |
